These results are taken from PMC5435919 (Nucleic Acids Research, 2017).

The series “SEC-MALS” concerns the molecule itself. The experiment in a line: SEC-MALS. Background: SEC sorts molecules by how far they enter the pores of the column.
The series “atomic force microscopy” concerns the molecule itself. The experiment in a line: atomic force microscopy.
For a further series, the target named is T1, DmGen (1-518)-His (Drosophila melanogaster, UniProt Q9VRJ0 1-518).
T1 sequence: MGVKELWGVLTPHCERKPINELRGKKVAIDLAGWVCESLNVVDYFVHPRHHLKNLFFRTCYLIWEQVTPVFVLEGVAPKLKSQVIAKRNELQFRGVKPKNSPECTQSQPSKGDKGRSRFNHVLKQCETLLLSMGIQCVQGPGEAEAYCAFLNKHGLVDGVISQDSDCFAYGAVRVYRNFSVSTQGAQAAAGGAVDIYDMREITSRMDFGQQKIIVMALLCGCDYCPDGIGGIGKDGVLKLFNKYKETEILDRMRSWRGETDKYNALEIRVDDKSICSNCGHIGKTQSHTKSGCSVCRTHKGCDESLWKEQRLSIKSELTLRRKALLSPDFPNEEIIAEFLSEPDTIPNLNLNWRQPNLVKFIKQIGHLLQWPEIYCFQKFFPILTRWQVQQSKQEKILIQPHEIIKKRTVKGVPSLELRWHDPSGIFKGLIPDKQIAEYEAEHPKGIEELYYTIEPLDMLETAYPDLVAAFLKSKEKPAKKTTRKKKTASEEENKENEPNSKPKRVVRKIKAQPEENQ
The experiment in a line: EMSA. For orientation: Mobility shift assays separate free from complexed probe on a gel.

B1: truncated DmGen (1-518 aa) with C-terminal hexahistidine tag (enzyme, Drosophila, UniProt Q9VRJ0 1-518, looked up)
chain: MGVKELWGVLTPHCERKPINELRGKKVAIDLAGWVCESLNVVDYFVHPRHHLKNLFFRTCYLIWEQVTPVFVLEGVAPKLKSQVIAKRNELQFRGVKPKNSPECTQSQPSKGDKGRSRFNHVLKQCETLLLSMGIQCVQGPGEAEAYCAFLNKHGLVDGVISQDSDCFAYGAVRVYRNFSVSTQGAQAAAGGAVDIYDMREITSRMDFGQQKIIVMALLCGCDYCPDGIGGIGKDGVLKLFNKYKETEILDRMRSWRGETDKYNALEIRVDDKSICSNCGHIGKTQSHTKSGCSVCRTHKGCDESLWKEQRLSIKSELTLRRKALLSPDFPNEEIIAEFLSEPDTIPNLNLNWRQPNLVKFIKQIGHLLQWPEIYCFQKFFPILTRWQVQQSKQEKILIQPHEIIKKRTVKGVPSLELRWHDPSGIFKGLIPDKQIAEYEAEHPKGIEELYYTIEPLDMLETAYPDLVAAFLKSKEKPAKKTTRKKKTASEEENKENEPNSKPKRVVRKIKAQPEENQ
The stoichiometry N is a count of units in the complex or per binding partner. For orientation: Kd means the free concentration of one partner at which half of the binding sites on the other are occupied at equilibrium, for simple one-to-one binding. Read a low Kd as higher affinity. As to B1, the “stoichiometry N” value in the series “SEC-MALS” was determined as 2. The molecule further gave an equilibrium dissociation constant (Kd) in the series “atomic force microscopy” of approximately 100 nM.

B2: linear dsDNA (oligos 888/888rc) (dsDNA)
DNA 1: GACGCTGCCGAATTCTGGCGTTAGGAGATACCGATAAGCTTCGGCTTAA
DNA 2: TTAAGCCGAAGCTTATCGGTATCTCCTAACGCCAGAATTCGGCAGCGTC
B2: in the series with DmGen (1-518)-His, the binding result was “no binding”.
